The labels stand for the following.
B1: C246V, Q8NJY3 (parent)
chain: MLKSALLLGAAAVSVQSASIPTIPANLEPRQIRSLCELYGYWSGNGYELLNNLWGKDTATSGWQCTYLDGTNNGGIQWSTAWEWQGAPDNVKSYPYVGKQIQRGRKISDINSMRTSVSWTYDRTDIRANVAYDVFTARDPDHPNWGGDYELMIWLARYGGIYPIGTFHSQVNLAGRTWDLWTGYNGNMRVYSFLPPSGDIRDFSCDIKDFFNYLERNHGYPAREQNLIVYQVGTECFTGGPARFTCRDFRADLW
B2: G186C, O00095 (parent)
chain: MKFLQVLPALIPAALAQTSCDQWATFTGNGYTVSNNLWGASAGSGFGCVTAVSLSGGASWHADWQWSGGQNNVKSYQNSQIAIPQKRTVNSISSMPTTASWSYSGSNIRANVAYDLFTAANPNHVTYSGDYELMIWLGKYGDIGPIGSSQGTVNVGGQSWTLYYGYNGAMQVYSFVAQTNTTNYSGDVKNFFNYLRDNKGYNAAGQYVLSYQFGTEPFTGSGTLNVASWTASIN

The variants in data set [1] derive from B1. Conditions: Trichocladium griseum; pH 8; Thermal; CD; Bis-Tris propane ammonium acetate 0.05 M 0.05 M; reversible: No; structure 1OLR; whole UniProt chain shown.
The variants in data set [2] derive from B2. The conditions noted are these: Hypocrea jecorina; pH 8; Thermal; CD; Bis-Tris propane ammonium acetate 0.05 M 0.05 M; reversible: No; structure 1H8V; whole UniProt chain shown.

A word on the Tm: it is the temperature at which the thermal transition is half complete. For C246V, in data set [1], the Tm stood at 69.5 °C and the “change of melting temperature, mutant - wild type (higher = more stable)” value (“change of melting temperature, mutant” below) worked out at 0.8 °C.
With C246S, in data set [1], the Tm was determined as 63.1 °C and the “change of melting temperature, mutant” value is -5.6 °C.
For the variant C236S, in data set [1], the Tm turned out to be 63.3 °C and the “change of melting temperature, mutant” value was -5.4 °C.
For C236P, in that order: 59.5 °C and -9.2 °C.
For C205S, in that order: 68.9 °C and 0.2 °C.
For C205G, in that order: 69.9 °C and 1.2 °C.
As for G186C, in data set [2], the Tm was found to be 56.5 °C and the “change of melting temperature, mutant” value stood at 2.1 °C.
For G186C P217C, in that order: 55.1 °C and 0.7 °C.
For V226C, in that order: 54.5 °C and 0.1 °C.
For P217C V226C, in that order: 55.1 °C and 0.7 °C.
For P217C V226C G186C, in data set [2], the Tm worked out at 54.5 °C and the “change of melting temperature, mutant” value worked out at 0.1 °C.
Consider P217C, for which, in data set [2], the Tm was 58.3 °C and the “change of melting temperature, mutant” value came to 3.9 °C.

Source of the values: FireProtDB (doi:10.1110/ps.03220403).
